Results: article PMC2504287 (Nucleic Acids Research, 2008)
Numbering of substitutions follows the chain as printed. In names and notes the source's numbering stands.

What was measured:
[1] = biological target: T1, C.Esp1396I controller protein (UniProt Q8GGH0 1-79); assay: EMSA
T1 sequence: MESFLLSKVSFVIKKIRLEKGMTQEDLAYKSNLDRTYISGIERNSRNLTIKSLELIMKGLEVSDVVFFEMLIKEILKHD

[2] = biological target: the molecule itself
native gel or EMSA = biological target: the molecule itself; assay: native gel or EMSA

B1: OL (OR mutated) (dsDNA)
DNA 1: ATGTGACTTATAGTCCGTCTAGCCTAGCCTAGCCT
DNA 2: AGGCTAGGCTAGGCTAGACGGACTATAAGTCACAT
[1]
  binding result: binds

B2: C.Esp1396I controller protein (wild type) (natural protein)
chain: GSHMESFLLSKVSFVIKKIRLEKGMTQEDLAYKSNLDRTYISGIERNSRNLTIKSLELIMKGLEVSDVVFFEMLIKEILKHD
[2]
  Kd: ~600 nM

B3: C.Esp1396I E25A mutant (natural protein)
chain: B2 chain with E28A
Native gel or EMSA
  binding result: binds
